How the values were obtained:
[1] = target: T1, SARS-CoV spike peptide #154, PELDSFKEELDKYFKNH (SARS-CoV residues 1125–1141); corresponding to SARS-CoV-2 … (SARS-CoV, residues 1125-1141); assay: far-Western, overlay or dot blot; conditions: both partners purified
T1 construct: also called 17-residue peptide
T1 chain: PELDSFKEELDKYFKNH

[2] = target: T2, SARS-CoV-2 spike S2 subunit (SARS-CoV-2, UniProt P0DTC2); assay: far-Western, overlay or dot blot; conditions: both partners purified
T2 construct: also called S2 domain

[3] = target: hCoV-HKU1 prefusion-stabilized spike (S2P) (hCoV-HKU1 isolate N1 (AAT98580.1), UniProt Q5MQD0, stabilised); assay: ELISA; conditions: both partners purified
[4] = target: T3, SARS-CoV-2 S1-short (spike residues 1–670) (SARS-CoV-2, UniProt P0DTC2); assay: ELISA; conditions: both partners purified
T3 construct: also called S1-short1

[5] = target: SARS-CoV-2 S-dTM (soluble spike protein residues 1–1206 of wildtype WA-1 strain) (SARS-CoV-2 WA-1, UniProt P0DTC2); assay: ELISA; conditions: both partners purified
[6] = target: SARS-CoV-2 spike receptor-binding domain (RBD) (SARS-CoV-2, UniProt P0DTC2); assay: ELISA; conditions: both partners purified
[7] = target: SARS-CoV-2 spike N-terminal domain (NTD) (SARS-CoV-2, WA-1 / Wuhan-Hu-1, UniProt P0DTC2); assay: ELISA; conditions: both partners purified
[8] = target: hCoV-OC43 prefusion-stabilized spike (S2P) (hCoV-OC43 (AAT84354.1), UniProt P36334, stabilised); assay: ELISA; conditions: both partners purified
[9] = target: SARS-CoV-2 S1R (spike residues 1–537) (SARS-CoV-2, UniProt P0DTC2); assay: ELISA; conditions: both partners purified
[10] = target: T4, hCoV-HKU1 full-length spike, expressed on the cell surface (hCoV-HKU1 isolate N1 (AAT98580.1), UniProt Q5MQD0); assay: flow cytometry on cells; conditions: one partner purified
T4 construct: also called hCoV-HKU1 spike; source: Expi-293 cells, transiently transfected, on the cell surface

[11] = target: T5, SARS-CoV-2 full-length spike, expressed on the cell surface (SARS-CoV-2 WA-1 (GenBank QHD43416.1), UniProt P0DTC2); assay: flow cytometry on cells; conditions: one partner purified
T5 construct: also called SARS-CoV-2 spike; WA-1 spike; source: Expi-293 cells, transiently transfected, on the cell surface

[12] = target: T6, hCoV-OC43 full-length spike, expressed on the cell surface (hCoV-OC43 (AAT84354.1), UniProt P36334); assay: flow cytometry on cells; conditions: one partner purified
T6 construct: also called hCoV-OC43 spike; source: Expi-293 cells, transiently transfected, on the cell surface

[13] = target: T7, MERS-CoV full-length spike, expressed on the cell surface (MERS-CoV EMC/2012 (GenBank AFS88936), UniProt K0BRG7); assay: flow cytometry on cells; conditions: one partner purified
T7 construct: also called MERS-CoV spike; MERS-CoV EMC

[14] = target: T2, SARS-CoV-2 spike S2 subunit; assay: negative-stain EM; conditions: both partners purified

B1: antibody WS6 (IgG) (antibody, V domains shown)
VH: EVQFQQSGTVLARPGASVKMSCKASGYTFTNYWIHWVKQRPGQGLEYIGGTYPGNGDTTYNQKFKGKAKVTAVTPTSTAYMDLSSLTNEDSAVYYCTRTGSYFDYWGQGTTLTVSS
VL: QIVLTQSPAIMSASPGEKVTISCSATSSVSYIYWYQQRPGSSPKPWIYRTSNLASGVPVRFSGSGSGTSYSLTISNMEAEDAATYYCQQYQSYPPTFGAGTKLELK
notes: also called mAb WS6
[1]
  binding result: binds
[2]
  binding result: binds
[3]
  binding result: binds
[4]
  binding result: no binding
[5]
  binding result: binds
[6]
  binding result: no binding
[7]
  binding result: no binding
[8]
  binding result: binds
[9]
  binding result: no binding
[10]
  binding result: binds
[11]
  binding result: binds
[12]
  binding result: binds
[13]
  binding result: binds

B2: antigen-binding fragment (Fab) of WS6 (Fab, V domains shown)
VH: EVQFQQSGTVLARPGASVKMSCKASGYTFTNYWIHWVKQRPGQGLEYIGGTYPGNGDTTYNQKFKGKAKVTAVTPTSTAYMDLSSLTNEDSAVYYCTRTGSYFDYWGQGTTLTVSS
VL: QIVLTQSPAIMSASPGEKVTISCSATSSVSYIYWYQQRPGSSPKPWIYRTSNLASGVPVRFSGSGSGTSYSLTISNMEAEDAATYYCQQYQSYPPTFGAGTKLELK
notes: also called Fab WS6; WS6 Fab; source: generated from the mAb with the Pierce Fab kit
[14]
  binding result: binds

Reference: publication doi:10.1101/2022.01.25.477770 (bioRxiv, 2022)
